Numbering of substitutions follows the chain as printed. Names may count otherwise. Values belong to the binder of their own block, whether it stands above or below them.
Tests used:
TGFβ1 (R&D Systems) [1] = molecular target: T1, TGFβ1 (R&D Systems); assay: SPR full titration
T1 construct: also called TGFB1

TGFβ2 (R&D Systems) = molecular target: T2, TGFβ2 (R&D Systems); assay: SPR full titration
T2 construct: also called TGFB2
T2 sequence (P61812 303-414, species assumed, looked up): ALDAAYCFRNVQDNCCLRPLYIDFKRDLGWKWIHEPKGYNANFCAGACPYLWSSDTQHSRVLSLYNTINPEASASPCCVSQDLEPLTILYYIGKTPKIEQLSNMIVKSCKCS

TGFβ3 (R&D Systems) = molecular target: T3, TGFβ3 (R&D Systems) (Homo sapiens (Human), UniProt P10600 301-412, Active TGFβ3 is a disulfide-linked homodimer of this chain; one copy is given.); assay: SPR full titration
T3 construct: also called TGFB3
T3 sequence: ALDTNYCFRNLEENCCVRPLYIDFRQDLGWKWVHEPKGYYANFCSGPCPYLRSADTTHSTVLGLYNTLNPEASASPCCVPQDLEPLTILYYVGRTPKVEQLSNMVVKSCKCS

TGFβ1 (R&D Systems) [2] = molecular target: T1, TGFβ1 (R&D Systems); assay: single point SPR

T1 sequence (P01137 279-390): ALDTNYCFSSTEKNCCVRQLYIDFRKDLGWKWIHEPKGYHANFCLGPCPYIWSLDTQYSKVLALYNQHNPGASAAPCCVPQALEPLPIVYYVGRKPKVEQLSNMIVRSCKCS

- Kd (TGFβ1 (R&D Systems) [1]): 4.4 nM
- Kd (TGFβ2 (R&D Systems)): 3.05 nM
- Kd (TGFβ3 (R&D Systems)): 0.99 nM
B1: affinity matured HcLb 269 (antibody, V domains shown)
VH: EVQLVQSGAEVKKPGASVKVSCKTSGYTFMTYWMNWVRQAPGAGLDWMGQIFPAWGMTNYNEMFEGRVTLTADTSTSTAYMELSSLRAGDIAVYYCARGYGNYALDAMDYWGQGTLVTVSS
VL: DIVMTQTPPSLSVSPRETASISCRASESVDSYGNSFMHWYLQKPGQSPQLLIYLASNLESGVSDRFSGSGSGTDFTLRISRVEANDTGVYYCQQNDEDPLSFGQGTK
notes: full IgG; also called canHcLb/55SW/100DY/57SM/30IM + canHcLb/237ND/242TS

- Kd (TGFβ3 (R&D Systems)): 1.19 nM
B2: affinity matured HcLb 270 (antibody, V domains shown)
VH: B1 VH
VL: B1 VL
notes: full IgG; also called canHcLb/55SW/100DY/57SV/30IM + canHcLb/237ND/242TS

- Kd (TGFβ1 (R&D Systems) [1]): 3.24 nM
- Kd (TGFβ2 (R&D Systems)): 2.82 nM
- Kd (TGFβ3 (R&D Systems)): 0.7 nM
B3: affinity matured HcLb 265 (antibody, V domains shown)
VH: B1 VH with T31K
VL: B1 VL
notes: full IgG; also called canHcLb/55SW/100DY/30IM/31TK/57SM + canHcLb/237ND/242TS

- Kd (TGFβ1 (R&D Systems) [1]): 5.34 nM
- Kd (TGFβ2 (R&D Systems)): 3.96 nM
- Kd (TGFβ3 (R&D Systems)): 1.03 nM
B4: affinity matured HcLb 268 (antibody, V domains shown)
VH: B1 VH with T28I, T31K
VL: DIVMTQTPPSLSVSPRETASISCRASESVDSYGNSFMHWYLQKPGQSPQLLIYLASNLESGVSDRFSGSGSGTDFTLRISRVEANDTGVYYCQQNNEDPLTFGQ
notes: full IgG; constant regions not restated

- Kd (TGFβ1 (R&D Systems) [1]): 2.69 nM
- Kd (TGFβ2 (R&D Systems)): 3.89 nM
- Kd (TGFβ3 (R&D Systems)): 3.75 nM
B5: affinity matured HcLb 264 (antibody, V domains shown)
VH: B1 VH with T28I, T31K, M57S
VL: B1 VL
notes: full IgG; also called canHcLb/55SW/100DY/30IM/31TK/28TI + canHcLb/237ND/242TS

- Kd (TGFβ1 (R&D Systems) [1]): 2.4 nM
- Kd (TGFβ2 (R&D Systems)): 2.9 nM
- Kd (TGFβ3 (R&D Systems)): 0.453 nM
B6: affinity matured HcLb 266 (antibody, V domains shown)
VH: B1 VH with T28I, T31K
VL: B1 VL
notes: full IgG; also called canHcLb/55SW/100DY/30IM/31TK/28TI/57SM + canHcLb/237ND/242TS

- Kd (TGFβ1 (R&D Systems) [1]): 2.3 nM
- Kd (TGFβ2 (R&D Systems)): 1.28 nM
- Kd (TGFβ3 (R&D Systems)): 0.957 nM
B7: affinity matured HcLb 271 (antibody, V domains shown)
VH: B1 VH with T31F
VL: B1 VL
notes: full IgG; also called canHcLb/55SW/100DY/57SM/30IM/31TF + canHcLb/237ND/242TS

- Kd (TGFβ1 (R&D Systems) [1]): 1.78 nM
- Kd (TGFβ2 (R&D Systems)): 2.09 nM
- Kd (TGFβ3 (R&D Systems)): 0.005 nM
B8: affinity matured HcLb 205 (antibody, V domains shown)
VH: B1 VH with T28I, M30I, M57S
VL: B1 VL
notes: full IgG; also called canHcLb/S55W/D100Y/T28/I + canHcLb/237ND/242TS

- Kd (TGFβ1 (R&D Systems) [1]): 2.39 nM
- Kd (TGFβ2 (R&D Systems)): 2.02 nM
- Kd (TGFβ3 (R&D Systems)): 0.895 nM
B9: affinity matured HcLb 272 (antibody, V domains shown)
VH: B1 VH with T28K, T31F
VL: B1 VL
notes: full IgG; also called canHcLb/55SW/100DY/57SM/30IM/31TF/28TK + canHcLb/237ND/242TS

- Kd (TGFβ1 (R&D Systems) [1]): 5.1 nM
- Kd (TGFβ2 (R&D Systems)): 3.77 nM
- Kd (TGFβ3 (R&D Systems)): 1.01 nM
B10: affinity matured HcLb 267 (antibody, V domains shown)
VH: B1 VH with T28I, T31K, M57S
VL: B4 VL
notes: as for B4

- Kd (TGFβ1 (R&D Systems) [1]): 2.39 nM
- Kd (TGFβ2 (R&D Systems)): 2.91 nM
- Kd (TGFβ3 (R&D Systems)): 0.824 nM
B11: affinity matured HcLb 275 (antibody, V domains shown)
VH: B1 VH with T28K, M30W, T31F
VL: B1 VL
notes: full IgG; also called canHcLb/55SW/100DY/57SM/30IW/31TF/28TK + canHcLb/237ND/242TS

- Kd (TGFβ1 (R&D Systems) [2]): 0.341 nM
B12: Can-SL501-VH3 D108E / Can-SL501-VL2 (antibody, V domains shown)
VH: EVQLVESGGDLVKPGGSLRLSCVASGFTFSSYGMHWVRQAPGKELEWVAVISYDGSIKYYADAVKGRFTISRDNAKNTLYLQMNSLRAEDTAVYYCARTGEYSGYDTEPQYSWGQGTTVTVSS
VL: EIVMTQSPGSLAGSAGESVSINCRASQGIGDDLGWYQQKPGERPKLLIYGTSTLQSGVPARFSSSGSGTDFTLTINNLQAEDVGDYYCLQDSNYPLTFGAGTK

- Kd (TGFβ1 (R&D Systems) [2]): 1.17 nM
B13: Can-SL501-VH3 Y111M / Can-SL501-VL2 (antibody, V domains shown)
VH: B12 VH with E108D, Y111M
VL: B12 VL

- Kd (TGFβ1 (R&D Systems) [2]): 0.93 nM
B14: Can-SL501-VH3 Y111V / Can-SL501-VL2 (antibody, V domains shown)
VH: B12 VH with E108D, Y111V
VL: B12 VL

- Kd (TGFβ1 (R&D Systems) [2]): 3.51 nM
B15: Can-SL501-VH3 D108P / Can-SL501-VL2 (antibody, V domains shown)
VH: B12 VH with E108P
VL: B12 VL

- Kd (TGFβ1 (R&D Systems) [2]): 7.37 nM
B16: Can-SL501-VH3 Q110V / Can-SL501-VL2 (antibody, V domains shown)
VH: B12 VH with E108D, Q110V
VL: B12 VL

- Kd (TGFβ1 (R&D Systems) [2]): 4.97 nM
B17: Can-SL501-VH3 P109S / Can-SL501-VL2 (antibody, V domains shown)
VH: B12 VH with E108D, P109S
VL: B12 VL

- Kd (TGFβ1 (R&D Systems) [2]): 8.4 nM
B18: Can-SL501-VH3 P109Y / Can-SL501-VL2 (antibody, V domains shown)
VH: B12 VH with E108D, P109Y
VL: B12 VL

- Kd (TGFβ1 (R&D Systems) [2]): 9.68 nM
B19: Can-SL501-VH3 D108N / Can-SL501-VL2 (antibody, V domains shown)
VH: B12 VH with E108N
VL: B12 VL

- Kd (TGFβ1 (R&D Systems) [2]): 0.534 nM
B20: Can-SL501-VH3 P109F / Can-SL501-VL2 (antibody, V domains shown)
VH: B12 VH with E108D, P109F
VL: B12 VL

- Kd (TGFβ1 (R&D Systems) [2]): 5.61 nM
B21: Can-SL501-VH3 Q110T / Can-SL501-VL2 (antibody, V domains shown)
VH: B12 VH with E108D, Q110T
VL: B12 VL

- Kd (TGFβ1 (R&D Systems) [2]): 6.4 nM
B22: Can-SL501-VH3 Q110S / Can-SL501-VL2 (antibody, V domains shown)
VH: B12 VH with E108D, Q110S
VL: B12 VL

- Kd (TGFβ1 (R&D Systems) [2]): 5.76 nM
B23: Can-SL501-VH3 Q110H / Can-SL501-VL2 (antibody, V domains shown)
VH: B12 VH with E108D, Q110H
VL: B12 VL

- Kd (TGFβ1 (R&D Systems) [2]): 0.724 nM
B24: Can-SL501-VH3 D108S / Can-SL501-VL2 (antibody, V domains shown)
VH: B12 VH with E108S
VL: B12 VL

- Kd (TGFβ1 (R&D Systems) [2]): 0.877 nM
B25: Can-SL501-VH3 S112A / Can-SL501-VL2 (antibody, V domains shown)
VH: B12 VH with E108D, S112A
VL: B12 VL

- Kd (TGFβ1 (R&D Systems) [2]): 1.25 nM
B26: Can-SL501-VH3 D108Q / Can-SL501-VL2 (antibody, V domains shown)
VH: B12 VH with E108Q
VL: B12 VL

- Kd (TGFβ1 (R&D Systems) [2]): 4.5 nM
B27: Can-SL501-VH3 Y111H / Can-SL501-VL2 (antibody, V domains shown)
VH: B12 VH with E108D, Y111H
VL: B12 VL

- Kd (TGFβ1 (R&D Systems) [2]): 3.51 nM
B28: Can-SL501-VH3 S112T / Can-SL501-VL2 (antibody, V domains shown)
VH: B12 VH with E108D, S112T
VL: B12 VL

- Kd (TGFβ1 (R&D Systems) [2]): 0.762 nM
B29: Can-SL501-VH3 S112G / Can-SL501-VL2 (antibody, V domains shown)
VH: B12 VH with E108D, S112G
VL: B12 VL

- Kd (TGFβ1 (R&D Systems) [2]): 8.38 nM
B30: Can-SL501-VH3 Q110R / Can-SL501-VL2 (antibody, V domains shown)
VH: B12 VH with E108D, Q110R
VL: B12 VL

- Kd (TGFβ1 (R&D Systems) [2]): 2.8 nM
B31: Can-SL501-VH3 S112P / Can-SL501-VL2 (antibody, V domains shown)
VH: B12 VH with E108D, S112P
VL: B12 VL

- Kd (TGFβ1 (R&D Systems) [2]): 1.83 nM
B32: Can-SL501-VH3 D108H / Can-SL501-VL2 (antibody, V domains shown)
VH: B12 VH with E108H
VL: B12 VL

- Kd (TGFβ1 (R&D Systems) [2]): 6.9 nM
B33: Can-SL501-VH3 P109W / Can-SL501-VL2 (antibody, V domains shown)
VH: B12 VH with E108D, P109W
VL: B12 VL

- Kd (TGFβ1 (R&D Systems) [2]): 3.4 nM
B34: Can-SL501-VH3 S112N / Can-SL501-VL2 (antibody, V domains shown)
VH: B12 VH with E108D, S112N
VL: B12 VL

- Kd (TGFβ1 (R&D Systems) [2]): 6.97 nM
B35: Can-SL501-VH3 S112L / Can-SL501-VL2 (antibody, V domains shown)
VH: B12 VH with E108D, S112L
VL: B12 VL

- Kd (TGFβ1 (R&D Systems) [2]): 0.798 nM
B36: Can-SL501-VH3 D108T / Can-SL501-VL2 (antibody, V domains shown)
VH: B12 VH with E108T
VL: B12 VL

- Kd (TGFβ1 (R&D Systems) [2]): 1.59 nM
B37: Can-SL501-VH3 P109G / Can-SL501-VL2 (antibody, V domains shown)
VH: B12 VH with E108D, P109G
VL: B12 VL

- Kd (TGFβ1 (R&D Systems) [2]): 7.46 nM
B38: Can-SL501-VH3 Y111P / Can-SL501-VL2 (antibody, V domains shown)
VH: B12 VH with E108D, Y111P
VL: B12 VL

- Kd (TGFβ1 (R&D Systems) [2]): 13.9 nM
B39: Can-SL501-VH3 Y111W / Can-SL501-VL2 (antibody, V domains shown)
VH: B12 VH with E108D, Y111W
VL: B12 VL

- Kd (TGFβ1 (R&D Systems) [2]): 1.35 nM
B40: Can-SL501-VH3 P109H / Can-SL501-VL2 (antibody, V domains shown)
VH: B12 VH with E108D, P109H
VL: B12 VL

From US20220119513A1 (ZOETIS SERVICES, published 2022)
